Substitutions are numbered along the chain they refer to. One block for each binder: values may come before it.
What was measured:
mouse RSPO2 [1] = molecular target: T1, mouse RSPO2 (mouse, UniProt Q8BFU0 22-205, limits assumed); test: SPR (Biacore) with the Fab; table row RSPO2, Affinity (nM) Fab
T1 construct: also called mRSPO2
Protocol: (§1) For kinetic measurements, two-fold serial dilutions of anti-RSPO Fabs were injected in HBS-P buffer (0.01M HEPES pH 7.4, 0.15M NaCl, 0.005% surfactant P20) at 25° C. with a flow rate of 30 μl/min. Association rates (kₒₙ) and dissociation rates (koff) were calculated using a simple one-to-one Langmuir binding model (BIAcore Evaluation Software version 3.2). The equilibrium dissociation constant (KD) was calculated as the ratio koff/kₒₙ.
(§2) Surface plasmon resonance was used to confirm binding specificities and affinities to human, mouse, and cynomolgus RSPOs. Fab fragments from antibody clones were digested, purified, and then assayed using a BIAcore™-2000 instrument for binding to recombinant proteins. Antibodies fell into three groups: those specific to RSPO2, those specific to RSPO3, and those with some degree of cross-reactivity (FIG. 5).

recombinant human RSPO3 [2] = molecular target: T2, recombinant human RSPO3 (human, UniProt Q9BXY4 22-272); test: SPR (Biacore) with the Fab; table row RSPO3, Affinity (nM) Fab
T2 construct: also called rhRSPO3; hRSPO3
T2 sequence: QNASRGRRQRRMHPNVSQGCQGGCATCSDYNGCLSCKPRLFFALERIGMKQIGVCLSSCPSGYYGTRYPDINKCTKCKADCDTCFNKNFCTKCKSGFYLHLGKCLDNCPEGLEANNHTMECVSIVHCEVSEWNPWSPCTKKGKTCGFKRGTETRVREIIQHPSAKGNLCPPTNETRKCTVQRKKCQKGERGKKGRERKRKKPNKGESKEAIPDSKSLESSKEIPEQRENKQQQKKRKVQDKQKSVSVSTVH
Protocol: as §1, §2

cynomolgus RSPO3 [3] = molecular target: T3, cynomolgus RSPO3 (cynomolgus, UniProt A0A2K5UTQ7 22-273); test: as above
T3 construct: also called cynoRSPO3; rcynoRSPO3
T3 sequence: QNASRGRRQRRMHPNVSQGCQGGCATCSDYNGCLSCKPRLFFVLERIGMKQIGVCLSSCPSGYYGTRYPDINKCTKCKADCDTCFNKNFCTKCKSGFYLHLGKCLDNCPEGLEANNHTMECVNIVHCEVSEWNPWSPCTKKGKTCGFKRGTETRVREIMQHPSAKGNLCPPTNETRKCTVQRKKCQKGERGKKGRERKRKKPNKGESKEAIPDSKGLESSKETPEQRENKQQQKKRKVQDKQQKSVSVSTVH
Protocol: as §1, §2

mouse RSPO3 [4] = molecular target: T4, mouse RSPO3 (mouse, UniProt Q2TJ95 22-277, limits assumed); test: as above
T4 construct: also called mRSPO3; murine RSPO3
T4 sequence (looked up): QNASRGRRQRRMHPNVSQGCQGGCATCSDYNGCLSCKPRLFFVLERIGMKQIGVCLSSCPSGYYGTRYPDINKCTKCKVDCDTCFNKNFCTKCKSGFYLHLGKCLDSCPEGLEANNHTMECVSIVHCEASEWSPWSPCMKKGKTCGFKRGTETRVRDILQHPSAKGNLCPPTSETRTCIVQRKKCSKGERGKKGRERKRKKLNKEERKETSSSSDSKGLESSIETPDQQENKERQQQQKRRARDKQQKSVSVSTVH
Protocol: as §1, §2

recombinant human RSPO2 = recombinant human RSPO2 (human, UniProt Q6UXX9 22-243); test: cell-based or functional assay
Chain of recombinant human RSPO2 (Q6UXX9 22-243): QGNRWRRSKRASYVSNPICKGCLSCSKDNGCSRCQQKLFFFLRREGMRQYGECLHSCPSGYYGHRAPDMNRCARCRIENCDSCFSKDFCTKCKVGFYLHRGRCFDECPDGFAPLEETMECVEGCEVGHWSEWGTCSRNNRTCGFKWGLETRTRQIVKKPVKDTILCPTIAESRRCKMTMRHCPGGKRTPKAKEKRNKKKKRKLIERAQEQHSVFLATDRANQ

recombinant human RSPO3 [5] = molecular target: T2, recombinant human RSPO3; test: cell-based or functional assay
cynomolgus RSPO3 [6] = molecular target: T3, cynomolgus RSPO3; test: cell-based or functional assay
mouse RSPO3 [7] = molecular target: T4, mouse RSPO3; test: cell-based or functional assay
cynomolgus RSPO2 = cynomolgus RSPO2 (cynomolgus, UniProt G7PCH9 22-243); test: cell-based or functional assay
Chain of cynomolgus RSPO2 (G7PCH9 entry or part of it): as the sequence (Q6UXX9 22-243) above, with V160A, L165P, T178A counted along it

mouse RSPO2 [8] = molecular target: T1, mouse RSPO2; test: cell-based or functional assay
[9] = molecular target: T5, human RSPO3 with C-terminal HA tag, stably expressed in 293 cells (human, UniProt Q9BXY4 22-272); test: IHC, FFPE 293 cell pellet, RSPO3 Hi
T5 construct: Whole open reading frame expressed in HEK-293 cells (high, medium, low); FFPE pellets; also called hRSPO3; RSPO3 Hi
T5 sequence: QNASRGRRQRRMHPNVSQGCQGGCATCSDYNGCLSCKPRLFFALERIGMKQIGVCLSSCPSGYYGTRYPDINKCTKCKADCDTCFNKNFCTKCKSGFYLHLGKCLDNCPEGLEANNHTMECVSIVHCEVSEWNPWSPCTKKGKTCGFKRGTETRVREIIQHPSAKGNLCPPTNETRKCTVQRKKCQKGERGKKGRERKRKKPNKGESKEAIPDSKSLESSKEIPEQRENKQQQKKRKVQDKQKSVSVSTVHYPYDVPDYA

[10] = molecular target: T5, human RSPO3 with C-terminal HA tag, …; test: IHC, FFPE 293 cell pellet, RSPO3 Low
[11] = molecular target: T5, human RSPO3 with C-terminal HA tag, …; test: IHC, FFPE 293 cell pellet, RSPO3 Med
[12] = molecular target: T6, human RSPO1 with C-terminal HA tag, stably expressed in 293 cells (human, UniProt Q2MKA7 21-263); test: IHC, FFPE 293 cell pellet, RSPO1 Hi; - = not significant staining
T6 construct: also called hRSPO1; RSPO1 Hi
T6 sequence (Q2MKA7 other isoform, or with tags, fused parts or gaps limits assumed): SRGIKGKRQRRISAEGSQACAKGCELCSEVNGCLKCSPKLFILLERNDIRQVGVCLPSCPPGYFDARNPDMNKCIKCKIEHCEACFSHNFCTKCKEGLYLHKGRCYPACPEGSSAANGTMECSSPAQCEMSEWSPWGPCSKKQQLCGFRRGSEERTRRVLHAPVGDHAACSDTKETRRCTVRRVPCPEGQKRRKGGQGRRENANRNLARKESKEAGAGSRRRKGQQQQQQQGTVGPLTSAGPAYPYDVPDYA

[13] = molecular target: T7, human RSPO4 with C-terminal HA tag, stably expressed in 293 cells (human, UniProt Q2I0M5 20-234); test: IHC, FFPE 293 cell pellet, RSPO4 Hi; - = not significant staining
T7 construct: also called hRSPO4; RSPO4 Hi
T7 sequence (Q2I0M5 other isoform, or with tags, fused parts or gaps limits assumed): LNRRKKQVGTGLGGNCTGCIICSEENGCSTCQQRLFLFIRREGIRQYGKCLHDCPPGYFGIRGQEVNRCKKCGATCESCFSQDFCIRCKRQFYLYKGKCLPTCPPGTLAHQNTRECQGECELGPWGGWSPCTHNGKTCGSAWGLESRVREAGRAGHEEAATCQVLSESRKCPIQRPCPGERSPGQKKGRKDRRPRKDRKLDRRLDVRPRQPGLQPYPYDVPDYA

[14] = molecular target: T8, FLAG-tagged human RSPO3 (Genentech) (human, UniProt Q9BXY4 22-272); test: competitive binding ELISA: antibody titrated against LGR4-Fc (LGR4-ECD) binding to plate-coated hRSPO3; signal = bound LGR4-Fc, OD(450/630)/OD no antibody
T8 construct: also called hRSPO3; RSPO3 coated plates; not shown: FLAG tag
T8 sequence: T2 sequence
Protocol: To measure the activity of anti-RSPO antibodies in blocking the binding of LGR4 and -5 ECDs to RSPOs, MaxiSorp 384-well microwell plates (Thermo Scientific Nunc, Roskilde, Denmark) were coated with 25 ul/well of 0.5 μg/ml hRSPO2 or hRSPO3 (Genentech) in 50 mM carbonate buffer, pH 9.6, overnight at 4° C. Plates were blocked with at 80 ul/well of 0.5% bovine serum albumin, 15 parts per million Proclin 300 in phosphate buffered saline (PBS), pH 7.4, for 1 hour. Serially diluted anti-RSPO antibodies ([…] in […] serial dilution plus buffer blank) containing 0.1 μg/ml LGR4-Fc or 0.015 μg/ml LGR5-Fc in assay buffer (0.5% BSA, 0.05% polysorbate 20, 15 parts per million Proclin 300 in PBS) were added to the plates at 25 ul/well. After a 2-hour incubation, LGR4-Fc and LGR5-Fc bound to the plates were detected using peroxidase labeled goat F(ab′)2 anti-human Fc (Jackson ImmunoResearch, West Grove, Pa.). After a 1 hour incubation, the substrate 3,3′,5,5′-tetramethyl benzidine (Moss Inc., Pasadena, Md.) was added to the plates and the reaction was stopped by adding 1 M phosphoric acid. Plates were washed with PBS, pH 7.4, containing 0.05% tween 20, between steps and all the incubation steps following the coating step were performed at room temperature on an orbital shaker. Absorbance was read at 450 nm on a multiskan Ascent reader (Thermo Scientific, Hudson, N.H.).

recombinant human RSPO3 [15] = molecular target: T2, recombinant human RSPO3; test: SPR, BIAcore T200, huRSPO3 immobilized, antibody injected
Protocol: The binding affinity of the antibodies in this section was determined by BIAcore™ T200 Format. Briefly, BIAcore™ research grade CMS chips were activated with 1-ethyl-3-(3-dimethylaminopropyl) carbodiimide (EDC) and N-hydroxysuccinimide (NETS) reagents according to the supplier's instructions. huRSPO3 was immobilized to achieve approximately 50 response units (RU) in each flow cell. Unreacted coupling groups were blocked with 1M ethanolamine. For kinetics measurements, Four-fold serial dilutions of variant antibody was injected in HBS-P buffer (0.01M HEPES pH7.4, 0.15M NaCl, 0.005% surfactant P20) at 25° C. with a flow rate of 30 μl/min. Association rates (kon) and dissociation rates (koff) were calculated using a 1:1 Langmuir binding model (BIAcore™ T200 Evaluation Software version 2.0). The equilibrium dissociation constant (Kd) was calculated as the ratio koff/kon.

T1 sequence (Q8BFU0 22-205 limits assumed): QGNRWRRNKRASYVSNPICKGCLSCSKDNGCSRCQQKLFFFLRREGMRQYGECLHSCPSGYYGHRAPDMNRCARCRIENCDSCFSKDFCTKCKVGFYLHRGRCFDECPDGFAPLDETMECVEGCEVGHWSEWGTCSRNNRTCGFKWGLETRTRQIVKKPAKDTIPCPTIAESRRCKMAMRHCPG

B2: 5C2 (antibody, V domains shown)
VH: EVQLQESGPGLVAPSQSLSITCTVSGFSLTSYGVHWVRQPPGKGLEWLGVIWTGGSTNYNSALMSRLSISKDNSKSQVFLKMNSLQTDDTAMYYCARVDGYYYFDYWGQGTTLTVSS
VL: DIVMTQSTSSLSASLGDRVTISCRASQDISNYLNWYQQKPDGTVKLLIYYTSRLHSGVPSRFSGSGSGTDYSLTISNLEPEDIATYFCQQGDTLPPTFGGGTKLEIK
notes: also called monoclonal antibody 5C2
- IC50, WNT luciferase reporter, bivalent antibody (recombinant human RSPO2): > 500 nM
- IC50, WNT luciferase reporter, bivalent antibody (recombinant human RSPO3 [5]): 0.65 nM
- IC50, WNT luciferase reporter, bivalent antibody (cynomolgus RSPO3 [6]): 1.3 nM
- IC50, WNT luciferase reporter, bivalent antibody (mouse RSPO3 [7]): 0.47 nM
- IC50, WNT luciferase reporter, bivalent antibody (cynomolgus RSPO2): > 500 nM
- IC50, WNT luciferase reporter, bivalent antibody (mouse RSPO2 [8]): > 500 nM
- percentage of cells staining [9]: > 95%
- percentage of cells staining [10]: 40%
- percentage of cells staining [11]: 60%
- binding result [12]: no binding
- binding result [13]: no binding
- IC50 (read off the curve) [14]: ~0.1 µg/mL

B4: hu5D6v4.3 (Fab, V domains shown)
VH: EVQLVESGPGLVKPSETLSLTCTVSGDSITSGYWNWIRQPPGKGLEWIGYISYSGKTYQNPSLKSRITISRDTSKNQFSLKLSSVTAADTAVYYCATYYGYGGPWFAYWGQGTLVTVSS
VL: DIQMTQSPSSLSASVGDRVTITCKASQDIDSYLSWFQQKPGKAPKTLIYLTNRLVDGVPSRFSGSGSGTDYTLTISSLQPEDFATYYCLHYDEFPLTFGQGTKVEIK
notes: Humanized 5D6 variant; also called v1+T69 (LC)+(W47+I48+F78 (HC))
- Kd (recombinant human RSPO3 [15]): 0.07 nM

B6: 21C2 (antibody, V domains shown)
VH: QVQLQQSGAELVRPGVSVKISCKGSGYTFTDYVIHWVKQSHAKSLEWIGVITTYYGDASYNQKFKGKATMTVDKSSSTAYMELARLTSEDSAIYYCARGAYGNSPSYWYFDVWGAGTSVTVSS
VL: DIVLTQSPASLTVSLGQRATISCRASESVDSYGNTFMHWYQQKPGQPPKLLIYLASNLESGVPARFSGSGSRTDFTLTIDPVEADDAATYYCQQNNEDPYTFGGGTKLEIK
notes: also called monoclonal antibody 21C2
- percentage of cells staining [9]: 95%
- percentage of cells staining [10]: 10%
- percentage of cells staining [11]: 60%
- binding result [12]: no binding
- binding result [13]: no binding
- IC50 (read off the curve) [14]: ~0.1 µg/mL

Now from value to binder:

- binding result (mouse RSPO2 [1]): no binding
- Kd (recombinant human RSPO3 [2]): 0.073 nM
- Kd (cynomolgus RSPO3 [3]): 1.9 nM
- Kd (mouse RSPO3 [4]): 3.36 nM
B1: Fab 5D6 (Fab, V domains shown)
VH: EVQLQESGPSLVKPSQTLSLTCSVTGDSITSGYWNWIRKFPGNKFEYMGYISYSGKTYQNPSLKSRISITRDTSKNQYHLQLNSVTTEDTATYYCATYYGYGGPWFAYWGQGTLVTVSA
VL: DIVLTQSPSSMYASLGERVTITCKASQDIDSYLSWFQQKPGKSPKTLIYLTNRLVDGVPSRFSGSGSGQDYSLTISSLEYEDMGIYYCLHYDEFPLTFGAGTKLEIK
notes: Fab expressed in E. coli for crystallography; also called 5D6 Fab

- binding result (mouse RSPO2 [1]): no binding
- Kd (recombinant human RSPO3 [2]): 67 nM
B3: 6E9 (Fab, V domains shown)
VH: QVQLKESGPGLVQPSQSLSITCTVSGFSLTSYGVHWVRQSPGKGLEWLGVIWSGGSTDYNAAFISRLSISKDNSKSQVFFKMNSLQANDTAIYYCARNDGYYYFDYWGQGTTLTVSS
VL: B2 VL with V3K, P80Q, T97A
notes: also called Fab of 6E9; 6E9 Fab

- binding result (mouse RSPO2 [1]): no binding
- Kd (recombinant human RSPO3 [2]): 9.5 nM
- Kd (cynomolgus RSPO3 [3]): 6.4 nM
- Kd (mouse RSPO3 [4]): 6.8 nM
B5: 4H1 (Fab, V domains shown)
VH: EVKLVESGGGFVKPGGSLKLSCAASGFTFSNFAMSWVRQSPEKRLEWVAEINNGGNYAYYQDTVTGRFTISRDNAKNTLYLEMSSLRSEDTAMYFCAREDYVNYEAYFAYWGQGTTLTVSS
VL: SIVMTQTPLSLPVSLGDQASISCRSSQSIVHSNGNTYLEWYLQKPGQSPKLLIYRISNRFSGVPDRFSGSGSGTDFTLKISRVEAEDLGVYYCFQGSHVPYTFGGGTKLEIK
notes: also called Fab of 4H1; 4H1 Fab

From patent US20180312579A1 (Genentech, published 2018)
